For one substance, Kd results are on record in article doi:10.1101/546648.

pKd: −log10 of the molar value.

In this data set the target is OrnVc (oligoribonuclease) (Vibrio cholerae O1 El Tor?) (UniProt Q9KV17). The data set can be described thus: DRaCALA. The note with it: 5' phosphate.

A word on the pKd: it is the negative decadic logarithm of the Kd, by convention in mol/L. A high value points to a small Kd. As to pGpG (GG, 2-mer), the pKd was 7.05.
